Data taken from PMC8693265, “Investigation of PAS and CNBH domain interactions in hERG channels and effects of long-QT syndrome-causing mutations with surface plasmon resonance” (The Journal of Biological Chemistry, 2021).
Where two headings read alike, the source gives them in different places.

B1: hERG CNBH domain (residues 734-867) (domain or fragment, human, UniProt Q12809 734-867, looked up)
chain: RSLLQHCKPFRGATKGCLRALAMKFKTTHAPPGDTLVHAGDLLTALYFISRGSIEILRGDVVVAILGKNDIFGEPLNLYARPGKSNGDVRALTYCDLHKIHRDDLLEVLDMYPEFSDHFWSSLEITFNLRDTNM
notes: also called isolated CNBH domain; not shown: 6-His, N-terminal, cleaved
B2: hERG PAS domain (residues 2-134) (domain or fragment, human, UniProt Q12809 2-134, looked up)
chain: PVRRGHVAPQNTFLDTIIRKFEGQSRKFIIANARVENCAVIYCNDGFCELCGYSRAEVMQRPCTCDFLHGPRTQRRAAAQIAQALLGAEERKVEIAFYRKDGSCFLCLVDVVPVKNEDGAVIMFILNFEVVME
notes: PAS domain (with PAS-cap) of the human ether-a-go-go-related gene (hERG, Kv11.1, KCNH2) channel, residues 2-134; Cloned in pETM11; The PAS domain expressed from mRNA in oocytes (pGH19) is written under this molecule in the functional rows; also called isolated PAS domain; free PAS domain; not shown: 6-His, N-terminal, cleaved

Columns and labels:
Assay in all cases: SPR; one domain amine-coupled to a CM5 chip (~2000-3000 RU), the other injected as analyte over a range of concentrations (maximum 10 uM); Biacore T200, 25 C; 150 mM KCl, 1 mM TCEP, 10% glycerol, 0.05% Tween 20, 30 mM HEPES pH 7.5; fits with the two-state reaction model; for PAS/PAS and CNBH/CNBH the step of oligomerisation is not told
[1] = target: the molecule itself
[2] = target: the molecule itself; remark: listed apart in the source
[3] = target: B1; details: both partners purified
[4] = target: B1; details: both partners purified; remark: listed apart in the source
[5] = target: B2; details: both partners purified

| Binder | Kd [1] | Kd [2] | Kd [3] | Kd [4] | Kd [5] |
| --- | --- | --- | --- | --- | --- |
| B1 | 5 µM | 2.7 µM |  |  |  |
| B2 | 0.4 µM | 1.6 µM | 1.4 µM |  |  |
| hERG PAS domain with the LQTS-causing mutation E58D (domain or fragment, human, UniProt Q12809 2-134, looked up, PAS domain of the hERG (KCNH2) channel, residues 2-134, with the genetically occurring LQTS mutation E58D; also called PAS-E58D; not shown: 6-His, N-terminal, cleaved) PVRRGHVAPQNTFLDTIIRKFEGQSRKFIIANARVENCAVIYCNDGFCELCGYSRADVMQRPCTCDFLHGPRTQRRAAAQIAQALLGAEERKVEIAFYRKDGSCFLCLVDVVPVKNEDGAVIMFILNFEVVME |  |  | 0.6 µM | 0.2 µM |  |
| hERG PAS domain with the LQTS-causing mutation R20G (domain or fragment, human, UniProt Q12809 2-134, looked up, PAS domain of the hERG (KCNH2) channel, residues 2-134, with the genetically occurring LQTS mutation R20G; also called PAS-R20G; not shown: 6-His, N-terminal, cleaved) PVRRGHVAPQNTFLDTIIGKFEGQSRKFIIANARVENCAVIYCNDGFCELCGYSRAEVMQRPCTCDFLHGPRTQRRAAAQIAQALLGAEERKVEIAFYRKDGSCFLCLVDVVPVKNEDGAVIMFILNFEVVME |  |  | 3.6 µM | 2 µM |  |
| mEAG PAS domain (residues 7-136) (domain or fragment, mouse (from the name mEAG), UniProt Q60603 7-136, looked up, PAS domain of the mEAG channel, residues 7-136; not shown: 6-His, N-terminal, cleaved) RRGLVAPQNTFLENIVRRSNDTNFVLGNAQIVDWPIVYSNDGFCKLSGYHRAEVMQKSSACSFMYGELTDKDTVEKVRQTFENYEMNSFEILMYKKNRTPVWFFVKIAPIRNEQDKVVLFLCTFSDITAF |  |  |  | ~1.7 µM | ~5.6 µM |
